Columns and labels:
[1] = test system: yeast protein preparation; assay: Hydrolysis of 10% (w/v) yeast proteins compared with commercial enzyme preparations; format: biochemical; settings: yeast proteins 10% w/v
Description: In industrial applications enzymes are used for the hydrolysis of protein preparations derived from different sources. Here we show the results of a comparative study in which the rate and quality of hydrolysis of casein and yeast protein preparations by the 8-fold mutated TLP-ste variant was compared with that obtained by the hydrolysis using 3 different enzyme preparations that are used for these purposes in industry. The hydrolysis conditions were chosen such that they were optimal for each of the enzyme preparation under study. The hydrolysis products were separated in an acid-soluble and a not acid-soluble fraction. The amount of acid-soluble protein material formed upon hydrolysis was determined by means of measuring the absorbance at 275 nm, whereas the composition of the acid-insoluble hydrolysis products was studied using SDS-PAGE.
Substrate (10% w/v of casein or yeast protein preparation) was incubated in 50 mM Tris-MES, 5 mM CaCl2, pH 6.5 at 50° C. (Enzyme I, Favourzyme™ 1000L); 50 mM Tris-MES, 5 mM CaCl2, pH 6.0 at 60° C. (Enzyme II, BioProtease N100L); 50 mM Tris-MES, 5 mM CaCl2, pH 8.0 at 60° C. […] The amount of acid-soluble protein released by hydrolysis was determined by measuring the absorbance of the samples at 275 nm. The acid precipitated proteins were redisolved in 6 M urea and subsequently analysed by SDS-PAGE (15% running gel).

[2] = test system: casein; assay: Specific activity with casein as substrate at 37° C.; format: biochemical
Procedure: Specific activities for TLP-ste and the 8-fold mutant were determined using casein (0.8%) as a substrate in 50 mM Tris-HCl (pH 7.5), 5 mM CaCl2 at 37° C. […] (pH 7.0), 5 mM CaCl2, 5% or 1% DMSO, 0.5% isopropanol, 0.01% Triton X-100, 50 mM NaCl, with […] of substrate, by measuring the decrease in absorption at 345 nm (Î345=−317 M^−1·cm^−1). Stock solutions of the furylacryloylated dipeptides, (Sigma, St. Louis, […].) were prepared by dissolving 3-(-2-furylacryloyl)-L-glycyl-L-leucine amide (FaGLa) and 3-(-2-furylacryloyl)-L-alanyl-L-phenylalanine amide (FaAFa) in DMSO. The kcat/Km ratios of the enzymes were determined by varying the enzyme concentrations (over a 50 fold range) under pseudo-first order conditions by measuring the initial activity, essentially according to the method described by Feder^30. The Ki for phosphoramidon (N-[a-L-rhamnopyrano-syl-oxyhydroxyphophinyl]-L-leucyl-L-tryptophan) was determined by a 30 minute preincubation of a 100 pM protease solution with varying concentrations of the inhibitor (10^−8 to 10^−3 M), in 50 mM MOPS (pH 7.0), 5 mM CaCl2, 50 mM NaCl, prior to the addition of the furylacryloated substrate. For determination of the Ki FaAFa was used as the substrate. Since the Km of the substrate for the enzyme is higher than the concentration used, IC50 values were taken to be equal to Ki values. The optimum temperature for activity was determined by incubating proteases with casein (0.8%) in 50 mM Tris-HCl (pH 7.5), 5 mM CaCl2, at different temperatures for 30 minutes, after which the amount of released peptides, indicative for activity, was measured^11.

[3] = format: physicochemical
Procedure: Stabilities of TLPs were determined at different temperatures. Shown are the first-order inactivation curves for TLP-ste incubated at 80° C. (Δ) and 90° C. (+), thermolysin at 90° C. (Δ), and the 8-fold mutant at 100° C. (●), respectively. […] Samples, taken at the various time points, were quickly cooled on ice (15 s) and transferred to 50° C. to prevent cold denaturation. Residual activity was determined using casein (0.8%) as a substrate in 50 mM TrisHCl (pH 7.5), 5 mM CaCl2 as described previously (Eijsink, V. G. H., Veltman, O. R., Aukema, W., Vriend, G. & Venema, G. Nature Struct. Biol. 2, 374-379 (1995)).

B1: 8-fold mutant: TLP-ste with A4T, T56A, G58A, T63F, S65P, A69P and a disulfide bridge G8C-N60C (protein)
chain: VAGTSTVCVGRGVLGDQKYINTTYSSYYGYYYLQDNTRGSGIFTYDGRNRTVLPGSLWADADCQFFAPYDAPAVDAHYYAGVVYDYYKNVHGRLSYDGSNAAIRSTVHYGRGYNNAFWNGSQMVYGDGDGQTFLPFSGGIDVVGHELTHAVTDYTAGLVYQNESGAINEAMSDIFGTLVEFYANRNPDWEIGEDIYTPGVAGDALRSMSDPAKYGDPDHYSKRYTGTQDNGGVHTNSGIINKAAYLLSQGGVHYGVSVNGIGRDKMGKIFYRALVYYLTPTSNFSQLRAACVQAAADLYGSTSQEVNSVKQAFNAVGVY
[1]
  range of hydrolysis products (SDS-PAGE) versus the other enzymes: much broader range of hydrolysis products
[1]; enzyme 0.05% v/v, pH 7.0, 90° C.
  rate of hydrolysis and acid-soluble protein products versus the other enzyme preparations: more rapidly and that more acid-soluble protein products are produced
[2]
  specific activities at 37° C., wild-type versus mutant: identical
[2]; casein 0.8%, pH 7.5, 5 mM CaCl2
  Specific activity casein: 3.9 ± 0.7 (U/mg) × 10^−3
[3]
  half life at 100° C.: ~3 h
  half-life at 100° C. relative to the wild-type: more than 1000 times
[3]; buffer, pH 5.3
  half-life 80° C.: stable
  half-life 90° C.: stable
  half-life 100° C.: 2.83 h
